This is an account of results in publication PMC9800333, “Determinants of receptor tyrosine phosphatase homophilic adhesion: Structural comparison of PTPRK and PTPRM extracellular domains” (The Journal of Biological Chemistry, 2022).

This series concerns the molecule itself. The series is described as follows: SEC-MALS; pH 8: 100 ul at 1 mg/ml on Superdex 200 Increase 10/300 GL in 100 mM Tris-HCl, pH 8, 250 mM NaCl; protein conjugate analysis for glycans; dimer to monomers.

B1: PTPRK MAM-Ig-FN1 domains (domain or fragment, human, UniProt Q15262-3 28-385, looked up)
chain: QGQFSAGGCTFDDGPGACDYHQDLYDDFEWVHVSAQEPHYLPPEMPQGSYMIVDSSDHDPGEKARLQLPTMKENDTHCIDFSYLLYSQKGLNPGTLNILVRVNKGPLANPIWNVTGFTGRDWLRAELAVSTFWPNEYQVIFEAEVSGGRSGYIAIDDIQVLSYPCDKSPHFLRLGDVEVNAGQNATFQCIATGRDAVHNKLWLQRRNGEDIPVAQTKNINHRRFAASFRLQEVTKTDQDLYRCVTQSERGSGVSNFAQLIVREPPRPIAPPQLLGVGPTYLLIQLNANSIIGDGPIILKEVEYRMTSGSWTETHAVNAPTYKLWHLDPDTEYEIRVLLTRPGEGGTGLPGPPLITRTK
modifications: native N-linked glycans (no deglycosylation); glycans seen in the structure at N101, N140 and N211
notes: human PTPRK, N-terminal MAM, Ig and first FN domains, residues 28-385; numbers count on: UniProt Q15262-3; Cloned into pHLSec (AgeI/KpnI) in frame with the vector's N-terminal secretion signal; also called PTPRK-MIFN1; MIFN1
For the protein B1, the “stoichiometry N” value worked out at 2.

B2: PTPRK-MIFN1.W351G (domain or fragment, human, UniProt Q15262-3 28-385, looked up)
chain: QGQFSAGGCTFDDGPGACDYHQDLYDDFEWVHVSAQEPHYLPPEMPQGSYMIVDSSDHDPGEKARLQLPTMKENDTHCIDFSYLLYSQKGLNPGTLNILVRVNKGPLANPIWNVTGFTGRDWLRAELAVSTFWPNEYQVIFEAEVSGGRSGYIAIDDIQVLSYPCDKSPHFLRLGDVEVNAGQNATFQCIATGRDAVHNKLWLQRRNGEDIPVAQTKNINHRRFAASFRLQEVTKTDQDLYRCVTQSERGSGVSNFAQLIVREPPRPIAPPQLLGVGPTYLLIQLNANSIIGDGPIILKEVEYRMTSGSWTETHAVNAPTYKLGHLDPDTEYEIRVLLTRPGEGGTGLPGPPLITRTK
notes: human PTPRK, MAM-Ig-FN1 domains, residues 28-385, with W351G; numbers count on: UniProt Q15262-3; PDB 8A1F is the wild-type parent; also called W315G mutant form of PTPRK-MIFN1; source: expressed and purified (as PTPRK-MIFN1: human embryonic kidney-293F cells, nickel-nitrilotriacetic acid agarose, SEC)
On to B2, for which the binding result is listed as “binds”.

B3: full-length PTPRK extracellular domain (domain or fragment, human, UniProt Q15262-3 28-752, looked up)
chain: QGQFSAGGCTFDDGPGACDYHQDLYDDFEWVHVSAQEPHYLPPEMPQGSYMIVDSSDHDPGEKARLQLPTMKENDTHCIDFSYLLYSQKGLNPGTLNILVRVNKGPLANPIWNVTGFTGRDWLRAELAVSTFWPNEYQVIFEAEVSGGRSGYIAIDDIQVLSYPCDKSPHFLRLGDVEVNAGQNATFQCIATGRDAVHNKLWLQRRNGEDIPVAQTKNINHRRFAASFRLQEVTKTDQDLYRCVTQSERGSGVSNFAQLIVREPPRPIAPPQLLGVGPTYLLIQLNANSIIGDGPIILKEVEYRMTSGSWTETHAVNAPTYKLWHLDPDTEYEIRVLLTRPGEGGTGLPGPPLITRTKCAEPMRTPKTLKIAEIQARRIAVDWESLGYNITRCHTFNVTICYHYFRGHNESKADCLDMDPKAPQHVVNHLPPYTNVSLKMILTNPEGRKESEETIIQTDEDVPGPVPVKSLQGTSFENKIFLNWKEPLDPNGIITQYEISYSSIRSFDPAVPVAGPPQTVSNLWNSTHHVFMHLHPGTTYQFFIRASTVKGFGPATAINVTTNISAPTLPDYEGVDASLNETATTITVLLRPAQAKGAPISAYQIVVEELHPHRTKREAGAMECYQVPVTYQNAMSGGAPYYFAAELPPGNLPEPAPFTVGDNRTYQGFWNPPLAPRKGYNIYFQAMSSVEKETKTQCVRIATKAAATEEPEVIPDPAKQTDRVV
modifications: native N-linked glycans (no deglycosylation)
notes: human PTPRK, full extracellular domain (MAM, Ig, FN1-4), residues 28-752; numbers count on: UniProt Q15262-3; Cloned into pHLSec (AgeI/KpnI) in frame with the vector's N-terminal secretion signal; The C-terminal His6 tag was included in the SAXS models; also called PTPRK-ECD; PTPRK full ECD; not shown: Lys-His6, C-terminal, kept
For B3, the “stoichiometry N” value was found to be 2.
